# Patent publication US8741844B2, “Use of mutated antithrombins for treating or preventing coagulation disorders” (Universite Paris-Sud XI, priority 2007, dated 2014)
# Numbering of substitutions follows the chain as printed.
# B1: AT-ΔR393: human antithrombin with deletion of the amino acid at position 393 (protein, listed as Homo sapiens)
# chain: HGSPVDICTAKPRDIPMNPMCIYRSPEKKATEDEGSEQKIPEATNRRVWELSKANSRFATTFYQHLADSKNDNDNIFLSPLSISTAFAMTKLGACNDTLQQLMEVFKFDTISEKTSDQIHFFFAKLNCRLYRKANKSSKLVSANRLFGDKSLTFNETYQDISELVYGAKLQPLDFKENAEQSRAAINKWVSNKTEGRITDVIPSEAINELTVLVLVNTIYFKGLWKSKFSPENTRKELFYKADGESCSASMMYQEGKFRYRRVAEGTQVLELPFKGDDITMVLILPKPEKSLAKVEKELTPEVLQEWLDELEEMMLVVHMPRFRIEDGFSLKEQLQDMGLVDLFSPEKSKLPGIVAEGRDDLYVSDAFHKAFLEVNEEGSEAAASTAVVIAGSLNPNRVTFKANRPFLVFIREVPLNTIIFMGRVANPCVK
# B2: AT-ΔS394: human antithrombin with deletion of the amino acid at position 394 (protein, listed as Homo sapiens)
# chain: B1 chain with S393R
# B3: AT-ΔR393-S394: human antithrombin with deletion of the amino acids at positions 393 and 394 (protein, listed as Homo sapiens)
# chain: HGSPVDICTAKPRDIPMNPMCIYRSPEKKATEDEGSEQKIPEATNRRVWELSKANSRFATTFYQHLADSKNDNDNIFLSPLSISTAFAMTKLGACNDTLQQLMEVFKFDTISEKTSDQIHFFFAKLNCRLYRKANKSSKLVSANRLFGDKSLTFNETYQDISELVYGAKLQPLDFKENAEQSRAAINKWVSNKTEGRITDVIPSEAINELTVLVLVNTIYFKGLWKSKFSPENTRKELFYKADGESCSASMMYQEGKFRYRRVAEGTQVLELPFKGDDITMVLILPKPEKSLAKVEKELTPEVLQEWLDELEEMMLVVHMPRFRIEDGFSLKEQLQDMGLVDLFSPEKSKLPGIVAEGRDDLYVSDAFHKAFLEVNEEGSEAAASTAVVIAGLNPNRVTFKANRPFLVFIREVPLNTIIFMGRVANPCVK
# Test system: plasma anti FXa activity in mice treated with pentasaccharide
# Assay: Murine model: mutated antithrombins as antidotes of fondaparinux, plasma anti FXa activity
# Assay type: in vivo, mouse
# Conditions: injection of mutated antithrombin after fondaparinux
# Experimental: The efficiency of the mutated antithrombins AT-R393H(SEQ ID NO: 4), AT-Pro394 (SEQ ID NO: 6), AT-ΔR393-S394 (SEQ ID NO: 18), AT-ΔR393 (SEQ ID NO: 8), AT-ΔS394 (SEQ ID NO: 10), AT-N135Q-R393H(SEQ ID NO: 14), AT-N135Q-Pro394 (SEQ ID NO: 16), AT-N135Q-ΔR393-S394 (SEQ ID NO: 24), AT-N135Q-ΔR393 (SEQ ID NO: 20), AT-N135Q-A5394 (SEQ ID NO: 22) as antidotes is evaluated in a murine model.
# The different drugs to be tested (fondaparinux, low molecular weight heparin, full length heparin and the mutated antithrombins) are administrated by intra-venous injection in the caudal vein to avoid the variability encountered when administration is performed subcutaneously. However, Heparin derivatives (fondaparinux, low molecular weight heparin and full length heparin) could also be administrated subcutaneously.
# The blood is collected by punction in cave vein into tubes containing 0.105 mol/L trisodium citrate (1:10). Platelet-poor plasma is obtained by centrifugation at 2300 g for 10 minutes at 12° C. and stored at −80° C. until use.
# The following elements are determined: • the doses of fondaparinux inducing an overdose in mice, • the mutated antithrombins time course, and in particular the time required to observe a maximal biological effect, • the minimal doses of mutated antithrombins necessary to neutralize fondaparinux.
# For each of these experiments, 4 groups of 5 mice each are used: • In the first group mice receive fondaparinux vehicle and then antidote (mutated antithrombin) vehicle. • In the second group, mice receive fondaparinux and then antidote vehicle • In the third group, mice receive fondaparinux vehicle and then antidote • In the last group, mice receive fondaparinux and then antidote
# Anti FXa activity measurements is performed as previously described using a Stachrom Heparin® kit on a STA (Stago, France) or a Rotachrom Heparin® kit with procedure adapted for measurement in microplate reader (Dynatech MR 5000). A calibration curve with pentasaccharide is performed, allowing the expression of the results in nmol/ml (or in mg/L) of plasma.
# Thus, the antidote (mutated antithrombins) is administered intravenously, 5 min after the intra-venous injection of the fondaparinux, and 5, 15 or 30 min after the subcutaneous injection of the fondaparinux.
# The mutated antithrombin time course is studied by measuring the plasma anti-Xa activity 5 min, 10 min, 20 min and 40 min after the antidote administration.
# Once the time of action determined, a dose response curve is performed in vivo to determine the dose of antidote necessary to obtain a decrease in Fondaparinux plasma concentration within the therapeutic range around 1.2 nmol/ml (or 2 mg/L), or around 0.7 nmol/ml (or 1.2 mg/L).
row,Molecule,plasma anti FXa activity in mice treated with pentasaccharide
1,B1,significant decrease
2,B2,significant decrease
3,B3,significant decrease

# Biological target: T1, factor Xa (Homo sapiens, UniProt P00742)
# T1 construct: purchased Kordia
# T1 sequence (P00742 235-488 limits assumed): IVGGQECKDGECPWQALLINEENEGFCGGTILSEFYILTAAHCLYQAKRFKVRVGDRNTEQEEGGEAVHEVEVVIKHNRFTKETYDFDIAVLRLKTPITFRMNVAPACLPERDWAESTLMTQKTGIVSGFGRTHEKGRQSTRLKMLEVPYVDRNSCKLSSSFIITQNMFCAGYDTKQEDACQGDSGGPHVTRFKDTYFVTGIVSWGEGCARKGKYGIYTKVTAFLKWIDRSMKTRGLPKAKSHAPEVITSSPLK
# T1 sequence (P00742 41-179 partner limits assumed): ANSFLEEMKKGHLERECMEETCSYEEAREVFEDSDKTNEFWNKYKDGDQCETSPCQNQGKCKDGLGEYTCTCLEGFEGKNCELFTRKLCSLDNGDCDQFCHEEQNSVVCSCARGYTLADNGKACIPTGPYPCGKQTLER
# Assay: Kinetic assay of factor Xa inhibition by antithrombins in a purified system (chromogenic substrate, continuous or discontinuous)
# Assay type: biochemical
# Conditions: with or without pentasaccharide; compared with plasma / wild type antithrombin
# Experimental: Briefly, factor Xa is incubated with an excess of tested antithrombins (corresponding to plasma antithrombin, or wild type antithrombin or mutated antithrombins and varying in each assay realized) in the presence or absence of pentasaccharide (Fondaparinux sodique, Arixtra®, GlaxoSmithKline) and the factor Xa residual activity is measured as a function of time. The pentasaccharide is added in excess in the reaction media so that every tested antithrombin is bound to the pentasaccharide. In the absence of pentasaccharide, polybrene is added in order to neutralize any sulfated glycosaminoglycan that may be present in the reaction media. The residual factor Xa activity is measured as the increase in absorbance at 405 nm resulting from cleavage of the chromogenic substrate (S2765 or S2222, Chromogenix) using a microplate reader (Dynatech MR 5000). The analysis of the data is performed using the GraphPad Prism version 3 software. Absorbance recording is continuous or discontinuous according to the expected inhibition rate constant (kon).
# The inhibition rate constant (kon) is the second order rate constant given in M^−1·s^−1 which define the velocity of stable complex formation between protease and antithrombin (higher is the kon value, faster will the complex be established).
# When the expected kon is lower than 10^4 M^−1·s^−1 the discontinuous method is used. Factor Xa (0.2 to 1 μM, or 0.1 to 1 μM) is incubated with tested antithrombins (0.2 to 10 μM, or 1 to 10 μM) in the presence of pentasaccharide (10 to 100 μM) or polybrene (100 μg/ml) in a final volume of 10 μl for 10 seconds to 5 hours, or 10 seconds to 24 hours. At the end of this incubation period, 190 μl of kinetic buffer containing 200 μM substrate is added and absorbance at 405 nm is recorded.
# The kinetic rate constant (k) is estimated by fitting the substrate hydrolysis initial rate curve to equation (1) using non-linear regression with v0 and v∞ being the substrate hydrolysis rate at time to or too respectively. […] (1)
# The inhibition rate constant (kon) is calculated from the rate constant (k) using equation (2) where AT is the tested antithrombin concentration. k=AT·kon (2)
# When the expected kon is higher than 10^4 M^−1·s^−1′ the continuous method is used. The tested antithrombin (0.01 to 1 μM, or 0.1 to 1 μM) is incubated with the substrate (200 μM) in the presence of pentasaccharide or polybrene in a final volume of 100 μL, or 190 μl, and the reaction is started by addition of 100 μL, or 10 μL, of factor Xa (2 nM or 10 nM). The rate constant (k) is obtained by fitting the substrate hydrolysis curve to equation (3) or (3′) using non-linear regression analysis where A0 is the absorbance at t0, and vi and vs are respectively the initial and final rates of substrate hydrolysis in the absence of tested antithrombin. A405=A0+vi·(1−exp(−k·t))/k. (3) Equation (3′) is also used, particularly in presence of plasma. A405=A0+vs*t+(vi−vs)*(1−exp(−k·t))/k. (3′)
# The inhibition rate constant (kon) is calculated from the kinetic constant (k) using equation (4) that takes into account the competitive effect of the substrate, with S being the initial substrate concentration, Km, the Michaelis constant for factor Xa-substrate interaction, AT the tested antithrombin concentration. k=(kon/(1+S/Km))·[AT] (4)
# Mutated antithrombins and wild type AT inhibitory activity are measured in the same conditions and compared with plasma AT inhibitory activity.
row,Molecule,factor Xa inhibitory activity
1,B1,negligible
2,B2,negligible
3,B3,negligible
